Results reported in PMC6614801 (2019).

B1: N-terminally His6-tagged NusA^AR2 (domain or fragment)
chain: DNKPADDLLNLEGVDRDLAFKLAARGVCTLEDLAEQGIDDLADIEGLTDEKAGALIMAARNICWFGDEA
B2: SuhB (inositol mono-phosphatase SuhB), wild type (natural protein)
chain: MHPMLNIAVRAARKAGNLIAKNYETPDAVEASQKGSNDFVTNVDKAAEAVIIDTIRKSYPQHTIITEESGELEGTDQDVQWVIDPLDGTTNFIKRLPHFAVSIAVRIKGRTEVAVVYDPMRNELFTATRGQGAQLNGYRLRGSTARDLDGTILATGFPFKAKQYATTYINIVGKLFNECADFRRTGSAALDLAYVAAGRVDGFFEIGLRPWDFAAGELLVREAGGIVSDFTGGHNYMLTGNIVAGNPRVVKAMLANMRDELSDALKR

Key:
Assay in all cases: SPR
SuhB^KL251/254AA = SuhB^KL251/254AA (E. coli, UniProt P0ADG4 1-267, KL251/254AA | KL251/254AA)
SuhB^K108A = SuhB^K108A (E. coli, UniProt P0ADG4 1-267, K108A)
[1] = biological target: B1

Binder: B1
- koff (SuhB^KL251/254AA): 0.341 s⁻¹
- koff (SuhB^K108A): 0.0498 s⁻¹

Binder: B2
- koff [1]: 0.0555 s⁻¹
